B1: FVIIa variant A51N (enzyme)
chain: ANAFLEELRPGSLERECKEEQCSFEEAREIFKDAERTKLFWISYSDGDQCNSSPCQNGGSCKDQLQSYICFCLPAFEGRNCETHKDDQLICVNENGGCEQYCSDHTGTKRSCRCHEGYSLLADGVSCTPTVEYPCGKIPILEKRNASKPQGRIVGGKVCPKGECPWQVLLLVNGAQLCGGTLINTIWVVSAAHCFDKIKNWRNLIAVLGEHDLSEHDGDEQSRRVAQVIIPSTYVPGTTNHDIALLRLHQPVVLTDHVVPLCLPERTFSERTLAFVRFSLVSGWGQLLDRGATALELMVLNVPRLMTQDCLQQSRKVGDSPNITEYMFCAGYSDGSKDSCKGDSGGPHATHYRGTWYLTGIVSWGQGCATVGHFGVYTRVSQYIEWLQKLMRSEPRPGVLLRAPFP
B2: FVIIa variant P321K (enzyme)
chain: ANAFLEELRPGSLERECKEEQCSFEEAREIFKDAERTKLFWISYSDGDQCASSPCQNGGSCKDQLQSYICFCLPAFEGRNCETHKDDQLICVNENGGCEQYCSDHTGTKRSCRCHEGYSLLADGVSCTPTVEYPCGKIPILEKRNASKPQGRIVGGKVCPKGECPWQVLLLVNGAQLCGGTLINTIWVVSAAHCFDKIKNWRNLIAVLGEHDLSEHDGDEQSRRVAQVIIPSTYVPGTTNHDIALLRLHQPVVLTDHVVPLCLPERTFSERTLAFVRFSLVSGWGQLLDRGATALELMVLNVPRLMTQDCLQQSRKVGDSKNITEYMFCAGYSDGSKDSCKGDSGGPHATHYRGTWYLTGIVSWGQGCATVGHFGVYTRVSQYIEWLQKLMRSEPRPGVLLRAPFP
B3: FVIIa variant P321S (enzyme)
chain: ANAFLEELRPGSLERECKEEQCSFEEAREIFKDAERTKLFWISYSDGDQCASSPCQNGGSCKDQLQSYICFCLPAFEGRNCETHKDDQLICVNENGGCEQYCSDHTGTKRSCRCHEGYSLLADGVSCTPTVEYPCGKIPILEKRNASKPQGRIVGGKVCPKGECPWQVLLLVNGAQLCGGTLINTIWVVSAAHCFDKIKNWRNLIAVLGEHDLSEHDGDEQSRRVAQVIIPSTYVPGTTNHDIALLRLHQPVVLTDHVVPLCLPERTFSERTLAFVRFSLVSGWGQLLDRGATALELMVLNVPRLMTQDCLQQSRKVGDSSNITEYMFCAGYSDGSKDSCKGDSGGPHATHYRGTWYLTGIVSWGQGCATVGHFGVYTRVSQYIEWLQKLMRSEPRPGVLLRAPFP
B4: FVIIa variant S222A/M298Q (enzyme)
chain: ANAFLEELRPGSLERECKEEQCSFEEAREIFKDAERTKLFWISYSDGDQCASSPCQNGGSCKDQLQSYICFCLPAFEGRNCETHKDDQLICVNENGGCEQYCSDHTGTKRSCRCHEGYSLLADGVSCTPTVEYPCGKIPILEKRNASKPQGRIVGGKVCPKGECPWQVLLLVNGAQLCGGTLINTIWVVSAAHCFDKIKNWRNLIAVLGEHDLSEHDGDEQARRVAQVIIPSTYVPGTTNHDIALLRLHQPVVLTDHVVPLCLPERTFSERTLAFVRFSLVSGWGQLLDRGATALELQVLNVPRLMTQDCLQQSRKVGDSPNITEYMFCAGYSDGSKDSCKGDSGGPHATHYRGTWYLTGIVSWGQGCATVGHFGVYTRVSQYIEWLQKLMRSEPRPGVLLRAPFP
B5: FVIIa variant P321E (enzyme)
chain: ANAFLEELRPGSLERECKEEQCSFEEAREIFKDAERTKLFWISYSDGDQCASSPCQNGGSCKDQLQSYICFCLPAFEGRNCETHKDDQLICVNENGGCEQYCSDHTGTKRSCRCHEGYSLLADGVSCTPTVEYPCGKIPILEKRNASKPQGRIVGGKVCPKGECPWQVLLLVNGAQLCGGTLINTIWVVSAAHCFDKIKNWRNLIAVLGEHDLSEHDGDEQSRRVAQVIIPSTYVPGTTNHDIALLRLHQPVVLTDHVVPLCLPERTFSERTLAFVRFSLVSGWGQLLDRGATALELMVLNVPRLMTQDCLQQSRKVGDSENITEYMFCAGYSDGSKDSCKGDSGGPHATHYRGTWYLTGIVSWGQGCATVGHFGVYTRVSQYIEWLQKLMRSEPRPGVLLRAPFP
B6: FVIIa variant H257A/M298Q (enzyme)
chain: ANAFLEELRPGSLERECKEEQCSFEEAREIFKDAERTKLFWISYSDGDQCASSPCQNGGSCKDQLQSYICFCLPAFEGRNCETHKDDQLICVNENGGCEQYCSDHTGTKRSCRCHEGYSLLADGVSCTPTVEYPCGKIPILEKRNASKPQGRIVGGKVCPKGECPWQVLLLVNGAQLCGGTLINTIWVVSAAHCFDKIKNWRNLIAVLGEHDLSEHDGDEQSRRVAQVIIPSTYVPGTTNHDIALLRLHQPVVLTDAVVPLCLPERTFSERTLAFVRFSLVSGWGQLLDRGATALELQVLNVPRLMTQDCLQQSRKVGDSPNITEYMFCAGYSDGSKDSCKGDSGGPHATHYRGTWYLTGIVSWGQGCATVGHFGVYTRVSQYIEWLQKLMRSEPRPGVLLRAPFP
B7: FVIIa variant S119N/L121S (enzyme)
chain: ANAFLEELRPGSLERECKEEQCSFEEAREIFKDAERTKLFWISYSDGDQCASSPCQNGGSCKDQLQSYICFCLPAFEGRNCETHKDDQLICVNENGGCEQYCSDHTGTKRSCRCHEGYNLSADGVSCTPTVEYPCGKIPILEKRNASKPQGRIVGGKVCPKGECPWQVLLLVNGAQLCGGTLINTIWVVSAAHCFDKIKNWRNLIAVLGEHDLSEHDGDEQSRRVAQVIIPSTYVPGTTNHDIALLRLHQPVVLTDHVVPLCLPERTFSERTLAFVRFSLVSGWGQLLDRGATALELMVLNVPRLMTQDCLQQSRKVGDSPNITEYMFCAGYSDGSKDSCKGDSGGPHATHYRGTWYLTGIVSWGQGCATVGHFGVYTRVSQYIEWLQKLMRSEPRPGVLLRAPFP
B8: FVIIa variant T239N (enzyme)
chain: ANAFLEELRPGSLERECKEEQCSFEEAREIFKDAERTKLFWISYSDGDQCASSPCQNGGSCKDQLQSYICFCLPAFEGRNCETHKDDQLICVNENGGCEQYCSDHTGTKRSCRCHEGYSLLADGVSCTPTVEYPCGKIPILEKRNASKPQGRIVGGKVCPKGECPWQVLLLVNGAQLCGGTLINTIWVVSAAHCFDKIKNWRNLIAVLGEHDLSEHDGDEQSRRVAQVIIPSTYVPGTNNHDIALLRLHQPVVLTDHVVPLCLPERTFSERTLAFVRFSLVSGWGQLLDRGATALELMVLNVPRLMTQDCLQQSRKVGDSPNITEYMFCAGYSDGSKDSCKGDSGGPHATHYRGTWYLTGIVSWGQGCATVGHFGVYTRVSQYIEWLQKLMRSEPRPGVLLRAPFP
B9: FVIIa variant P321Y (enzyme)
chain: ANAFLEELRPGSLERECKEEQCSFEEAREIFKDAERTKLFWISYSDGDQCASSPCQNGGSCKDQLQSYICFCLPAFEGRNCETHKDDQLICVNENGGCEQYCSDHTGTKRSCRCHEGYSLLADGVSCTPTVEYPCGKIPILEKRNASKPQGRIVGGKVCPKGECPWQVLLLVNGAQLCGGTLINTIWVVSAAHCFDKIKNWRNLIAVLGEHDLSEHDGDEQSRRVAQVIIPSTYVPGTTNHDIALLRLHQPVVLTDHVVPLCLPERTFSERTLAFVRFSLVSGWGQLLDRGATALELMVLNVPRLMTQDCLQQSRKVGDSYNITEYMFCAGYSDGSKDSCKGDSGGPHATHYRGTWYLTGIVSWGQGCATVGHFGVYTRVSQYIEWLQKLMRSEPRPGVLLRAPFP

Factor X (FX) (Homo sapiens (Human)), sequence (P00742 41-488 limits assumed): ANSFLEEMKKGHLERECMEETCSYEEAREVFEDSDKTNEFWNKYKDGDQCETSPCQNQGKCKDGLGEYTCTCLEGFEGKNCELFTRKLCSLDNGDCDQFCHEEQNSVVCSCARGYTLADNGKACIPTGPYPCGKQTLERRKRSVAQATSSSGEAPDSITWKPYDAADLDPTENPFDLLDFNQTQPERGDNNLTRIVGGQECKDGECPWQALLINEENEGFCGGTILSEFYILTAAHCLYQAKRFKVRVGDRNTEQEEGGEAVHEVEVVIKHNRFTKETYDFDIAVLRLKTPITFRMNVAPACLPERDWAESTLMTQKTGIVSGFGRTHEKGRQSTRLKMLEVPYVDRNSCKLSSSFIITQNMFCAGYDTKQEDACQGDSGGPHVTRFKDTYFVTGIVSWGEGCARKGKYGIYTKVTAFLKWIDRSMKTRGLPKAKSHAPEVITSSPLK

This experiment has as its target Factor X (FX) (Homo sapiens (Human)) (UniProt P00742).
With B1, the kcat/KM, TF-Dependent Indirect Assay was 1.02e+08 M⁻¹ s⁻¹.

In the case of B2, the kcat/KM, TF-Dependent Indirect Assay was found to be 3.43e+07 M⁻¹ s⁻¹.

B3: the kcat/KM, TF-Dependent Indirect Assay was 5.53e+07 M⁻¹ s⁻¹.

B4: the kcat/KM, TF-Dependent Indirect Assay was found to be 7.13e+07 M⁻¹ s⁻¹.

As to B5, the kcat/KM, TF-Dependent Indirect Assay stood at 5.59e+07 M⁻¹ s⁻¹.

On to B6, for which the kcat/KM, TF-Dependent Indirect Assay is 1.28e+08 M⁻¹ s⁻¹.

Consider B7, for which the kcat/KM, TF-Dependent Indirect Assay worked out at 5.75e+07 M⁻¹ s⁻¹.

Consider B8, for which the kcat/KM, TF-Dependent Indirect Assay came to 1.64e+07 M⁻¹ s⁻¹.

For the molecule B9, the kcat/KM, TF-Dependent Indirect Assay worked out at 4.48e+07 M⁻¹ s⁻¹.
